Data taken from patent publication EP4242225A1 (Consejo Superior De Investigaciones Científicas, dated 2023).

Assays:
Assay in all cases: ELISA, biotin-labeled bispecific hcAb on plate-bound RBD-Fc
[1] = target: T1, RBD-Fc, delta variant (B.1.617.2) (SARS-CoV-2; human, UniProt P0DTC2 332-534)
T1 construct: range 332-534; also called delta RBD

[2] = target: T2, RBD-Fc, gamma variant (B.1.1.28.1 or P.1) (SARS-CoV-2; human, UniProt P0DTC2 332-534)
T2 construct: range 332-534; also called gamma RBD

[3] = target: T3, RBD-Fc, kappa variant (B.1.617.1) (SARS-CoV-2; human, UniProt P0DTC2 332-534)
T3 construct: range 332-534; also called kappa RBD

[4] = target: T4, RBD-Fc, beta variant (B.1.351) (SARS-CoV-2; human, UniProt P0DTC2 332-534)
T4 construct: range 332-534; also called beta RBD

Measured: binding result

B1: bispecific hcAb 1.29-1.26 (bispecific antibody)
heavy: QVQLVESGGGSVQAGGSLRLSCAASGYTINTDAVAWFRQAPGKGDERVAVIYTGSGNTNYADSVKGRFTISQDNAKNTVYLQMNSLKPEDTALYYCASGYYGASGYDFNNWGQGTQVTVSSGGGGSGGGGSGGGGSQVQLVESGGGLVQAGGSLRLSCAATGYTWSSVCMGWFRQAPGKEREGVAGIPSGRNRPYYADSVKGRFTISQDNAKNAVFLLMNSLKPEDTAIYYCAPCSAPHDPEYNYWGQGTQVTVSS
binds: [1] | [2] | [3] | [4]

B2: bispecific hcAb 1.29-1.10 (bispecific antibody)
heavy: QVQLVESGGGSVQAGGSLRLSCAASGYTINTDAVAWFRQAPGKGDERVAVIYTGSGNTNYADSVKGRFTISQDNAKNTVYLQMNSLKPEDTALYYCASGYYGASGYDFNNWGQGTQVTVSSGGGGSGGGGSGGGGSQVQLVESGGGSVQAGGSLRLSCAASGYTYSTCRKGWYRQAPGKERELVASITADGATYYLDSVKGRLTISQDNAKNTVYLQMNSLKPEDTAVYYCAASVKDFTCTFNSWGQGTQVTVSS
binds: [1] | [2] | [3] | [4]
